What was measured:
[1] = target: T1, Human TNF (human, UniProt P01375 77-233); assay: in vitro display selection on recombinant human TNF
T1 construct: Biotinylated in the ELISA; purified recombinant protein in SPR; also called h TNF; huTNF

[2] = target: T1, Human TNF; assay: ELISA, captured DVD-Ig, biotin-human TNF titrated
Procedure: The following protocol is used to characterize the binding of TNF/IL-17 DVD-Ig proteins to human TNF and IL-17 by enzyme-linked immunosorbent assay (ELISA). An ELISA plate was coated with 50 μl per well of goat anti mouse IgG-Fc at 2 μg/ml, overnight at 4° C. The plate was washed 3 times with PBS/Tween. 50 μl Mab diluted to 1 μg/ml in PBS/0.1% BSA was added to appropriate wells and incubated for 1 hour at room temperature (RT). The plate was washed 3 times with PBS/Tween. 50 μl of serial diluted biotin-human TNF or IL-17 was added to appropriate wells and incubated for 1 hour at RT. The plate was washed 3 times with PBS/Tween. 50 μl of streptavidin-HRP diluted 1:10,000 in PBS/0.1% BSA was added to appropriate wells and incubated for 1 hour at RT. The plate was washed 3 times with PBS/Tween. 50 μl of TMB was added to appropriate wells and the reaction allowed to proceed for 1 minute. The reaction was stopped with 50 μl/well 2N H₂SO₄ and the absorbance read at 450 nm.

[3] = target: T1, Human TNF; assay: cell-based or functional assay
[4] = target: T2, Human IL-17A (human, UniProt Q16552 20-155, limits assumed); assay: ELISA, captured DVD-Ig, biotin-human IL-17 titrated
T2 construct: Biotinylated in the ELISAs; purified recombinant protein in SPR; also called hIL17A; hIL-17
T2 sequence (Q16552 20-155 limits assumed): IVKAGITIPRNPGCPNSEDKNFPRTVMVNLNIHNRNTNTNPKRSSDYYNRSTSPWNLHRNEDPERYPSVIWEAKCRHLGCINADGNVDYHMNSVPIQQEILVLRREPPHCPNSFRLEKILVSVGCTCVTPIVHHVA
How it was run: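 Plate coated with goat anti-mouse IgG-Fc, then antibody captured at 1 μg/ml; serially diluted biotinylated human TNF or IL-17 added 1 h at RT. Bound ligand detected with streptavidin-HRP and TMB, absorbance at 450 nm.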

[5] = target: T1, Human TNF; assay: SPR (Biacore T200), DVD-Ig captured by anti-human IgG Fc, antigen in solution
Procedure: (§1) The binding of antibodies to purified recombinant IL-17 and TNFα proteins were determined by surface plasmon resonance-based measurements with a Biacore® T200 instrument (GE Healthcare) using running HBS-EP (10 mM HEPES [pH 7.4], 150 mM NaCl, 3 mM EDTA, and 0.005% surfactant P20) containing 0.1 mg/ml BSA at 25° C. All chemicals were obtained from Biacore® AB (GE Healthcare) or otherwise from a different source as described in the text. Approximately 5000 RU of goat anti-human IgG (Fcγ) fragment specific polyclonal antibody (Pierce Biotechnology Inc, Rockford, Ill.) diluted in 10 mM sodium acetate (pH 4.5) was directly immobilized across a CM5 research grade biosensor chip using a standard amine coupling kit according to manufacturer's instructions and procedures at 25 ug/ml. Unreacted moieties on the biosensor surface were blocked with ethanolamine. Modified carboxymethyl dextran surface in flowcell 2, 3 and 4 were used as a reaction surface. Modified carboxymethyl dextran with goat IgG in flow cell 1 was used as the reference surface. For kinetic analysis, rate equations derived from the 1:1 Langmuir binding model were fitted simultaneously to association and dissociation phases of all six injections (using global fit analysis with local float for Rmax) with the use of Biacore T200 Evaluation software v.1.0. Purified antibodies were diluted in HEPES-buffered saline for capture across goat anti-human IgG specific reaction surfaces. Antibodies to be captured as ligand (1-5 μg/ml) were injected over reaction matrices at a flow rate of 50 μl/minute. Association phase was monitored for 5 minutes, while dissociation phase was monitored for 10-60 minutes to accommodate for slower off-rates. The association and dissociation rate constants, ka (unit M-1 s-1) and kd (unit s-1) were determined under a continuous flow rate of 50 μl/minute. Rate constants were derived by making kinetic binding measurements at six different antigen concentrations ranging from 0.78 nM to 100 nM, depending on the species of IL-17 or TNFα tested. The association ka, dissociation rate kd and equilibrium dissociation constant KD were calculated with the use of the same Biacore T200 Evaluation software v.1.0.

[6] = target: T3, Cynomolgus monkey IL-17A (cynomolgus monkey, UniProt A0A2K5TTB0 24-155); assay: as above
T3 construct: also called Cyno IL-17AA; Cyno IL17AA
T3 sequence (A0A2K5TTB0 entry or part of it): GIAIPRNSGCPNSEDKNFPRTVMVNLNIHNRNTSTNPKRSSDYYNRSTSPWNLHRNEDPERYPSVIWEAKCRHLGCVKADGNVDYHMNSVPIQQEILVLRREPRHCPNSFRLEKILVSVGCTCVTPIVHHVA
Procedure: as §1

[7] = target: T2, Human IL-17A; assay: as above
Procedure: as §1

[8] = target: T4, Rhesus TNFa (rhesus, UniProt P48094 77-233); assay: as above
T4 construct: also called Rhesus TNF-alpha
T4 sequence (P48094 77-233 limits assumed): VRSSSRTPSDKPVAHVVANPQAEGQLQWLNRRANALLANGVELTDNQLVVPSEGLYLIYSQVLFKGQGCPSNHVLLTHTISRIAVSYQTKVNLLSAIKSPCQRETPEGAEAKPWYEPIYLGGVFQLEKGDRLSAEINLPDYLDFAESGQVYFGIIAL
Procedure: as §1

T1 sequence (P01375 77-233 limits assumed): as the sequence (P48094 77-233 limits assumed) above, with T44R, N72T, L138R counted along it

Row | Binder | binding result [1] | EC50 [2] | Potency IC50 (nM), L929 bioassay, human TNF [3] | EC50 [4] | Kd [7] | koff [7] | kon [7] | other results
1 | AE11-7 (antibody, V domains shown, Fully human anti-TNF antibody isolated by in vitro display; also called AE11-7 VH; AE11-7 VL) VH: EVQLVQSGAEVKKPGASVKVSCKTSGYSLTQYPIHWVRQAPGQRPEWMGWISPGNGNTKLSPKFQGRVTLSRDASAGTVFMDLSGLTSDDTAVYFCTSVDLGDHWGQGTLVTVSS VL: DIVMTQSPEFQSVTPKEKVTITCRASQSIGSSLHWYQQKPDQSPKLLINYASQSFSGVPSRFSGGGSGTDFTLTINSLEAEDAATYYCHQSSNLPITFGQGTRLEIK | binds |  |  |  |  |  |  | 
2 | hMAK199-1-h10F7-M10.8 DVD-Ig (bispecific antibody, human IgG1, kappa, L234A L235A, DVD-Ig; IgG1 234,235 mut, kappa; GS10 linkers; also called HMAK199-1-GS10-H10F7-M10 DVD) heavy: not shown light: DIQMTQSPSSLSASVGDRVTITCRASQDISQYLNWYQQKPGKAPKLLIYYTSRLQSGVPSRFSGSGSGTDFTLTISSLQPEDFATYFCQQGNTWPPTFGQGTKLEIKRGGSGGGGSGDIQMTQSPSSLSASVGDRVTITCSASSGSISYIDWFQQKPGKAPKRLIYATFELASGVPSRFSGSGSGTDFTLTISSLQPEDFATYYCHQLGSYPDTFGQGTKLEIKRTVAAPSVFIFPPSDEQLKSGTASVVCLLNNFYPREAKVQWKVDNALQSGNSQESVTEQDSKDSTYSLSSTLTLSKADYEKHKVYACEVTHQGLSSPVTKSFNRGEC |  | 0.22 nM | 0.037 nM | 0.081 nM |  |  |  | 
3 | hMAK199-1-h10F7-M11.8 DVD-Ig wt (bispecific antibody, human IgG1, kappa, DVD-Ig; wild-type IgG1, kappa; GS10 linkers; Uncertain; also called HMAK199-1-h10F7-M11.8 HC DVD wt) heavy: not shown light: DIQMTQSPSSLSASVGDRVTITCRASQDISQYLNWYQQKPGKAPKLLIYYTSRLQSGVPSRFSGSGSGTDFTLTISSLQPEDFATYFCQQGNTWPPTFGQGTKLEIKRGGSGGGGSGDIQMTQSPSSLSASVGDRVTITCRASSGIISYIDWFQQKPGKAPKRLIYATFDLASGVPSRFSGSGSGTDYTLTISSLQPEDFATYYCRQVGSYPETFGQGTKLEIKRTVAAPSVFIFPPSDEQLKSGTASVVCLLNNFYPREAKVQWKVDNALQSGNSQESVTEQDSKDSTYSLSSTLTLSKADYEKHKVYACEVTHQGLSSPVTKSFNRGEC |  | 0.095 nM | 0.033 nM | 0.088 nM | 0.0257 nM | 7.9e-06 s⁻¹ | 307000 M⁻¹ s⁻¹ | Kd [5]: 0.00561 nM; koff [5]: 2.4e-05 s⁻¹; kon [5]: 4.28e+06 M⁻¹ s⁻¹; Kd [6]: 0.00444 nM; koff [6]: 1.18e-06 s⁻¹; kon [6]: 267000 M⁻¹ s⁻¹; Kd [8]: 0.0137 nM; koff [8]: 3.03e-05 s⁻¹; kon [8]: 2.2e+06 M⁻¹ s⁻¹
4 | hMAK199-1-h10F7-M11.8 QL DVD-Ig (bispecific antibody, human IgG1, kappa, L234A L235A, DVD-Ig; IgG1 (234,235) mut with QL mutations, kappa; GS10 linkers) heavy: EVQLVQSGAEVKKPGASVKVSCKASGYTFANYGIIWVRQAPGQGLEWMGWINTYTGKPTYAQKFQGRVTMTTDTSTSTAYMELSSLRSEDTAVYYCARKLFTTMDVTDNAMDYWGQGTTVTVSSGGGGSGGGGSEVQLVQSGAEVKKPGSSVKVSCKASGYTFTDYEIHWVRQAPGQGLEWMGVNDPESGGTFYNQKFDGRVTLTADESTSTAYMELSSLRSEDTAVYYCTRYSKWDSFDGMDYWGQGTTVTVSSASTKGPSVFPLAPSSKSTSGGTAALGCLVKDYFPEPVTVSWNSGALTSGVHTFPAVLQSSGLYSLSSVVTVPSSSLGTQTYICNVNHKPSNTKVDKKVEPKSCDKTHTCPPCPAPEAAGGPSVFLFPPKPKDQLMISRTPEVTCVVVDVSHEDPEVKFNWYVDGVEVHNAKTKPREEQYNSTYRVVSVLTVLHQDWLNGKEYKCKVSNKALPAPIEKTISKAKGQPREPQVYTLPPSREEMTKNQVSLTCLVKGFYPSDIAVEWESNGQPENNYKTTPPVLDSDGSFFLYSKLTVDKSRWQQGNVFSCSVLHEALHNHYTQKSLSLSPGK light: DIQMTQSPSSLSASVGDRVTITCRASQDISQYLNWYQQKPGKAPKLLIYYTSRLQSGVPSRFSGSGSGTDFTLTISSLQPEDFATYFCQQGNTWPPTFGQGTKLEIKRGGSGGGGSGDIQMTQSPSSLSASVGDRVTITCRASSGIISYIDWFQQKPGKAPKRLIYATFDLASGVPSRFSGSGSGTDYTLTISSLQPEDFATYYCRQVGSYPETFGQGTKLEIKRTVAAPSVFIFPPSDEQLKSGTASVVCLLNNFYPREAKVQWKVDNALQSGNSQESVTEQDSKDSTYSLSSTLTLSKADYEKHKVYACEVTHQGLSSPVTKSFNRGEC |  | 0.119 nM | 0.027 nM | 0.142 nM | < 0.00452 nM | < 1e-06 s⁻¹ | 221000 M⁻¹ s⁻¹ | 
5 | hMAK199-1-h10F7-M11.8 DVD-Ig (bispecific antibody, human IgG1, kappa, L234A L235A, DVD-Ig; IgG1 234,235 mut, kappa; GS10 linkers; also called HMAK199-1-GS10-H10F7-M11 DVD) heavy: not shown light: DIQMTQSPSSLSASVGDRVTITCRASQDISQYLNWYQQKPGKAPKLLIYYTSRLQSGVPSRFSGSGSGTDFTLTISSLQPEDFATYFCQQGNTWPPTFGQGTKLEIKRGGSGGGGSGDIQMTQSPSSLSASVGDRVTITCRASSGIISYIDWFQQKPGKAPKRLIYATFDLASGVPSRFSGSGSGTDYTLTISSLQPEDFATYYCRQVGSYPETFGQGTKLEIKRTVAAPSVFIFPPSDEQLKSGTASVVCLLNNFYPREAKVQWKVDNALQSGNSQESVTEQDSKDSTYSLSSTLTLSKADYEKHKVYACEVTHQGLSSPVTKSFNRGEC |  | 0.22 nM | 0.031 nM | 0.078 nM | 0.0337 nM | 1.11e-05 s⁻¹ | 329000 M⁻¹ s⁻¹ | Kd [5]: 0.0055 nM; koff [5]: 2.37e-05 s⁻¹; kon [5]: 4.31e+06 M⁻¹ s⁻¹; Kd [6]: 0.00722 nM; koff [6]: 2.15e-06 s⁻¹; kon [6]: 299000 M⁻¹ s⁻¹; Kd [8]: 0.0108 nM; koff [8]: 2.39e-05 s⁻¹; kon [8]: 2.21e+06 M⁻¹ s⁻¹
6 | AE11-1 (antibody, V domains shown, Fully human anti-TNF antibody isolated by in vitro display; also called AE11-1 VH; AE11-1 VL) VH: EVQLVQSGAEVKKPGASVKVSCKASGYTFTSYDVNWVRQATGQGLEWMGWMNPNSGNTGYAQKFQGRVTITADESTSTAYMELSSLRSEDTAVYYCAIFDSDYMDVWGKGTLVTVSS VL: SYELTQPPSVSLSPGQTARITCSGDALPKQYAYWYQQKPGQAPVLVIYKDTERPSGIPERFSGSSSGTTVTLTISGAQAEDEADYYCQSADSSGTSWVFGGGTKLTVL | binds |  |  |  |  |  |  | 
7 | TNF-JK1 (antibody, V domains shown, Fully human anti-TNF antibody isolated by in vitro display; also called TNF-JK1 VH; TNF-JK1 VL) VH: EVQLVESGGGLVQPGGSLRLSCATSGFTFNNYWMSWVRQAPGKGLEWVANINHDESEKYYVDSAKGRFTISRDNAEKSLFLQMNSLRAEDTAVYYCARIIRGRVGFDYYNYAMDVWGQGTLVTVSS VL: DIRLTQSPSPLSASVGDRVTITCRASQSIGNYLNWYQHKPGKAPKLLIYAASSLQSGVPSRFSGTGSGTDFTLTISSLQPEDFATYYCQESYSLIFAGGTKVEIK | binds |  |  |  |  |  |  | 
8 | AE11-5 (antibody, V domains shown, Fully human anti-TNF antibody isolated by in vitro display; also called AE11-5 VH; AE11-5 VL) VH: EVQLVQSGAEVKKPGSSAKVSCKASGGTFSSYAISWVRQAPGQGLEWMGGIIPILGTANYAQKFLGRVTITADESTSTVYMELSSLRSEDTAVYYCARGLYYDPTRADYWGQGTLVTVSS VL: DIVMTQSPDFHSVTPKEKVTITCRASQSIGSSLHWYQQKPDQSPKLLIRHASQSISGVPSRFSGSGSGTDFTLTIHSLEAEDAATYYCHQSSSSPPPTFGQGTQVEIK | binds |  |  |  |  |  |  | 

— patent US20140161804A1 (AbbVie / Abbott, published 2014)
